Assay results published in the supplement of paper PMC10567573.

B1: APBB1IP (parent)
chain: FNYSVGFKDLNESLNALEDQDLDA

Variants of: B1
Test: protein stability index of a GFP-peptide fusion (GPS, HEK-293T) (PSI 1-6); higher = more stable
Conditions: c terminus: a fixed tail appended
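Also: lentivirally expressed fusions sorted by FACS into six bins by GFP to DsRed ratio, PSI derived from sequencing read proportions per bin multiplied by bin number.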

Row | Variant | protein stability index
1 | FNYSVGFKDLNESLCALEDQDLDA [N15C] | 4.32
2 | FNYSVGFKDLNESLDALEDQDLDA [N15D] | 4.77
3 | FNYSVGFKDLNESLPALEDQDLDA [N15P] | 5
4 | FNYSVGFKDLNESLMALEDQDLDA [N15M] | 4.39
5 | FNYSVGFKDLNESLIALEDQDLDA [N15I] | 4.01
6 | FNYSVGFKDLNESLWALEDQDLDA [N15W] | 2.92
7 | KNYSVGFKDLNESLNALEDQDLDA [F1K] | 4.39
8 | QNYSVGFKDLNESLNALEDQDLDA [F1Q] | 5.38
9 | HNYSVGFKDLNESLNALEDQDLDA [F1H] | 5.05
10 | PNYSVGFKDLNESLNALEDQDLDA [F1P] | 5.21
11 | ANYSVGFKDLNESLNALEDQDLDA [F1A] | 5
12 | DNYSVGFKDLNESLNALEDQDLDA [F1D] | 5.74
13 | FNYSVGFKDRNESLNALEDQDLDA [L10R] | 4.54
14 | FNYSVGFKDFNESLNALEDQDLDA [L10F] | 3.95
15 | FNYSVGFKDWNESLNALEDQDLDA [L10W] | 3.95
16 | FNYSVGFKDHNESLNALEDQDLDA [L10H] | 4.58
17 | FNYSVGFKDCNESLNALEDQDLDA [L10C] | 3.5
18 | FNYSVGFKDINESLNALEDQDLDA [L10I] | 4.26
19 | FNYSVGFKDDNESLNALEDQDLDA [L10D] | 5.16
20 | FNYSVGFKDLNESLNALEDQDLMA [D23M] | 2.86
21 | FNYSVGFKDLNESLNALEDQDLAA [D23A] | 3.79
22 | FNYSVGFKDLNESLNALEDQDLQA [D23Q] | 4.22
23 | FNYSVGFKDLNESLNALEDQDLFA [D23F] | 2.44
24 | FNYSVGFKDLNESLNALEDQDLRA [D23R] | 3.81

Row | Variant | protein stability index
25 | FNYSVGFKDLNECLNALEDQDLDA [S13C] | 4.25
26 | FNYSVGFKDLNEQLNALEDQDLDA [S13Q] | 4.51
27 | FNYSVGFKDLNEELNALEDQDLDA [S13E] | 3.95
28 | FNYSVGFKDLNEMLNALEDQDLDA [S13M] | 3.88
29 | FNYSVGFKDLNERLNALEDQDLDA [S13R] | 4.15
30 | FNYQVGFKDLNESLNALEDQDLDA [S4Q] | 5.1
31 | FNYYVGFKDLNESLNALEDQDLDA [S4Y] | 3.42
32 | FNYAVGFKDLNESLNALEDQDLDA [S4A] | 4.53
33 | FNYGVGFKDLNESLNALEDQDLDA [S4G] | 4.88
34 | FNYFVGFKDLNESLNALEDQDLDA [S4F] | 3.24
35 | FNYCVGFKDLNESLNALEDQDLDA [S4C] | 4.31
36 | FNYMVGFKDLNESLNALEDQDLDA [S4M] | 4.23
37 | FNYRVGFKDLNESLNALEDQDLDA [S4R] | 4.82
38 | FNYPVGFKDLNESLNALEDQDLDA [S4P] | 3.29
39 | FNYTVGFKDLNESLNALEDQDLDA [S4T] | 4.62
40 | FNYSVGFKDLNESLNAFEDQDLDA [L17F] | 4.43
41 | FNYSVGFKDLNESLNAPEDQDLDA [L17P] | 4.65
42 | FNYSVGFKDLNESLNAHEDQDLDA [L17H] | 4.18
43 | FNYSVGFKDLNESLNAQEDQDLDA [L17Q] | 4.88
44 | FNYSVGFKDLNHSLNALEDQDLDA [E12H] | 3.69
45 | FNYSVGFKDLNISLNALEDQDLDA [E12I] | 3.69
46 | FNYSVGFKDLNDSLNALEDQDLDA [E12D] | 4.32
47 | FNYSVGFKDLNGSLNALEDQDLDA [E12G] | 4.2
48 | FNYSVGFKDLNESLNALNDQDLDA [E18N] | 4.06

Row | Variant | protein stability index
49 | FNYSVGFKDLNESLNALRDQDLDA [E18R] | 2.87
50 | FNYSVGFKDLNESLNALHDQDLDA [E18H] | 3.92
51 | FNYSVGFKDLNESLNALPDQDLDA [E18P] | 4.51
52 | FNYSVGFKDLNESLNALYDQDLDA [E18Y] | 2.95
53 | FNYSVGFKDLNESLNALFDQDLDA [E18F] | 2.79
54 | FNYSVGFKDLNESLNALSDQDLDA [E18S] | 3.71
55 | FNYSVGFKDLNESLNALWDQDLDA [E18W] | 2.52
56 | FNYSVGFKDLQESLNALEDQDLDA [N11Q] | 4.38
57 | FNYSVGFKDLDESLNALEDQDLDA [N11D] | 4.75
58 | FNYSVGFKDLTESLNALEDQDLDA [N11T] | 4.58
59 | FNYSVGFKDLKESLNALEDQDLDA [N11K] | 4.17
60 | FNYSVGFKDLWESLNALEDQDLDA [N11W] | 2.58
61 | FNYSVGFKDLIESLNALEDQDLDA [N11I] | 3.31
62 | FNYSVGFKDLMESLNALEDQDLDA [N11M] | 3.68
63 | FNYSVGFKDLEESLNALEDQDLDA [N11E] | 4.88
64 | FNYSVGFKDLHESLNALEDQDLDA [N11H] | 4.21
65 | FNYSVGFKDLYESLNALEDQDLDA [N11Y] | 3.25
66 | FNYSVGFKDLNESLNALEDQRLDA [D21R] | 3
67 | FNYSVGFKDLNESLNALEDQWLDA [D21W] | 2.43
68 | FNYSVGFKDLNESLNALEDQPLDA [D21P] | 3.77
69 | FNYSVGFKDLNESLNALEDQMLDA [D21M] | 3.83
70 | FNYSVGFKDLNESLNALEDQILDA [D21I] | 2.81
71 | FNYSVGFKDLNESLNALEDQVLDA [D21V] | 3.38
72 | FNYSVGFKDLNESLNALEDQQLDA [D21Q] | 3.75

Row | Variant | protein stability index
73 | FNYSVNFKDLNESLNALEDQDLDA [G6N] | 4.04
74 | FNYSVSFKDLNESLNALEDQDLDA [G6S] | 3.89
75 | FNYSVKFKDLNESLNALEDQDLDA [G6K] | 4.05
76 | FNYSVIFKDLNESLNALEDQDLDA [G6I] | 3.03
77 | FNYSVGFKALNESLNALEDQDLDA [D9A] | 3.99
78 | FNYSVGFKMLNESLNALEDQDLDA [D9M] | 3.86
79 | FNYSVGFKTLNESLNALEDQDLDA [D9T] | 4.2
80 | FNYSVGFKELNESLNALEDQDLDA [D9E] | 4.25
81 | FNYSVGFKGLNESLNALEDQDLDA [D9G] | 4.39
82 | FWYSVGFKDLNESLNALEDQDLDA [N2W] | 2.4
83 | FMYSVGFKDLNESLNALEDQDLDA [N2M] | 1.99
84 | FCYSVGFKDLNESLNALEDQDLDA [N2C] | 2.18
85 | FDYSVGFKDLNESLNALEDQDLDA [N2D] | 5.38
86 | FLYSVGFKDLNESLNALEDQDLDA [N2L] | 2.01
87 | FRYSVGFKDLNESLNALEDQDLDA [N2R] | 3.26
88 | FQYSVGFKDLNESLNALEDQDLDA [N2Q] | 2.88
89 | FSYSVGFKDLNESLNALEDQDLDA [N2S] | 2.64
90 | FNYSVGFKDLNESLNALEDQDLDT [A24T] | 4.45
91 | FNYSVGFKDLNESLNALEDQDLDH [A24H] | 4.52
92 | FNYSVGFKDLNESLNALEDQDLDY [A24Y] | 3.55
93 | FNYSVGFKDLNESLNALEDQDLDI [A24I] | 4.07
94 | FNYSVGFKDLNESLNALEDQDLDC [A24C] | 4.24
